In experiment [1] the test system is macrophage and mast cell infiltration. As to the kind of experiment: Murine infarct model, immune cell infiltration. The format is in vivo, mouse. The note with it: 25 mg/kg; four days post-MI. Here is the method:
SPHINGOMAB reduced immune-cell wound infiltration in vivo. Mice were subjected to MI, treated with saline or 25 mg/kg SPHINGOMAB 48 hr. after surgery and then sacrificed on day 4. SPHINGOMAB reduced macrophage (A) and mast cell (B) infiltration into the wound. Data are represented as fold decrease of saline-treated values.
Based upon the similarities of immune and inflammatory responses in CNV and CVD, the efficacy of SPHINGOMAB to mitigate immune cell infiltration into a wound was evaluated in a murine infarct model as an indication of SPHINGOMAB's potential effects in mitigating these damages during AMD [Vine, et al. (2005), Opthalmology, vol 112: 2076-80; and Seddon and Chen (2004), Int Opthalmol Clin, vol 44: 17-39]. Four days post-MI, macrophage and mast cell infiltration was evaluated using MAC-1 and MCG35 antibodies, respectively, within the area at risk.

The subject of another experiment is HUVECs. As to the kind of experiment: HUVEC migration, Matrigel chemoinvasion assay. The format is cell-based, human. As to conditions: co-incubation with S1P. As for the experimental part:
FIG. 5 has two panels, A and B. In panel A, S1P is shown to promote neovascularization through induction of HUVECs tube formation and migration, which is reduced by SPHINGOMAB. […] The number of cells that migrated to the Matrigel membrane were counted in five independent fields.
Experiments were performed as described by Visentin et al. (Cancer Cell 2006 March; 9(3):225-38).

A short description of experiment [2]: Competitive ELISA for specificity / cross-reactivity against bioactive lipids. The experiment is classed as binding. As to conditions: for cross-reactivity to sphingosylphosphorylcholine (SPC): competitor SPC. As for the experimental part:
Screening of serum and cell supernatant for S1P-specific antibodies was by direct ELISA using a thiolated SIP analog as the antigen. A standard ELISA was performed, as described below, except that 50 ul of sample (serum or cell supernatant) was diluted with an equal volume of PBS/0.1% Tween-20 (PBST) during the primary incubation. ELISAs were performed in 96-well high binding ELISA plates (Costar) coated with 0.1 μg of chemically-synthesized thiolated-S1P conjugated to BSA in binding buffer (33.6 mM Na2CO3, 100 mM NaHCO3; pH 9.5). The thiolated-S1P-BSA was incubated at 37° C. for 1 hr. at 4° C. overnight in the ELISA plate wells. The plates were then washed four times with PBS (137 mM NaCl, 2.68 mM KCl, 10.14 mM Na2HPO4, 1.76 mM KH2PO4; pH 7.4) and blocked with PBST for 1 hr. at room temperature. For the primary incubation step, 75 uL of the sample (containing the S1P to be measured), was incubated with 25 uL of 0.1 ug/mL anti-S1P mAb diluted in PBST and added to a well of the ELISA plate. Each sample was performed in triplicate wells. Following a 1 hr. incubation at room temperature, the ELISA plates were washed four times with PBS and incubated with 100 ul per well of 0.1 ug/mL HRP goat anti-mouse secondary (Jackson Immunoresearch) for 1 hr. at room temperature. Plates were then washed four times with PBS and exposed to tetramethylbenzidine (Sigma) for 1-10 minutes. The detection reaction was stopped by the addition of an equal volume of 1M H2SO4. Optical density of the samples was determined by measurement at 450 nm using an EL-X-800 ELISA plate reader (Bio-Tech).
For cross reactivity, a competitive ELISA was performed as described above, except for the following alterations. The primary incubation consisted of the competitor (S1P, SPH, LPA, etc.) and a biotin-conjugated anti-S1P mAb. Biotinylation of the purified monoclonal antibody was performed using the EZ-Link Sulfo-NHS-Biotinylation kit (Pierce). Biotin incorporation was determined as per kit protocol and ranged from 7 to 11 biotin molecules per antibody. The competitor was prepared as follows: lipid stocks were sonicated and dried under argon before reconstitution in DPBS/BSA [1 mg/ml fatty acid free BSA (Calbiochem) in DPBS (Invitrogen 14040-133)]. Purified anti-S1P mAb was diluted as necessary in PBS/0.5% Triton X-100. Competitor and antibody solutions were mixed together so to generate 3 parts competitor to 1 part antibody. A HRP-conjugated streptavidin secondary antibody (Jackson Immunoresearch) was used to generate signal.
The humanized variants were tested for specificity in a competitive ELISA assay (FIG. 1) against S1P and several other biolipids. This assay has the added benefit to allow for epitope mapping.
A general note: An ELISA detects its analyte on a solid surface through an enzyme-linked reagent.

The next experiment relates to perivascular fibrosis. Put plainly: Permanent myocardial infarction model, perivascular fibrosis. The format is in vivo, mouse. As to conditions: 25 mg/kg from 48 hrs after surgery; two weeks. As for the experimental part:
Studies evaluated the efficacy of SPHINGOMAB to reduce cardiac scar formation after permanent myocardial infarction (MI) via ligation of the left descending coronary artery in mice. Systemic administration of 25 mg/kg SPHINGOMAB or saline was initiated 48 hrs after surgery. Antibody administration at 48 hr. was chosen to allow normal, reparative scar formation to occur during the early remodeling phase and permit beneficial, S1P-stimulated angiogenesis immediately after the MI. Two weeks after the infarct, mice were sacrificed and fibrosis was accessed by Masson's trichrome staining of the cardiac tissue. […] As a control for any non-specific wound-healing responses, sham animals underwent thoracotomy without coronary artery ligation (FIG. 7E).

Experiment [3] deals with fibroblasts (Swiss 3T3, cardiac fibroblasts, WI-38). Put plainly: S1P-stimulated fibroblast proliferation, migration, collagen expression, myofibroblast differentiation. The experiment is classed as cell-based. The note with it: 1 μg/mL antibody; 0.1-1 μM S1P. As for the experimental part:
See Example 7, below, for experimental details. […] In these experiments, fibroblasts were serum-starved and then treated with 0, 0.1, 0.5, or 1 μM S1P+/−1 μg/mL SPHINGOMAB for 12-24 hr. […] SPHINGOMAB neutralized each of these S1P effects. SPHINGOMAB reduced perivascular fibrosis in vivo in a murine model of a permanent myocardial infarction (E).
S1P makes profound contributions to wound healing by activating fibroblast migration, proliferation and collagen production; SPHINGOMAB neutralizes these effects. Several studies using multiple types of fibroblasts confirm S1P's ability to promote wound healing: 1) S1P increased Swiss-3T3 fibroblast proliferation as measured by ^3H-thymidine incorporation using standard methods (FIG. 7A); 2) S1P promoted the migration of cardiac fibroblasts in a standard scratch wound healing assay. […] In each of these assays, SPHINGOMAB neutralized S1P's. It is anticipated that ocular fibroblasts would respond similarly to S1P and SPHINGOMAB.

B1: LT1002: murine monoclonal antibody to S1P, IgG1 kappa, hybridoma clone 306D326.26 (antibody, listed as Mus sp., V domains shown)
VH: QAHLQQSDAELVKPGASVKISCKVSGFIFIDHTIHWMKQRPEQGLEWIGCISPRHDITKYNEMFRGKATLTADKSSTTAYIQVNSLTFEDSAVYFCARGGFYGSTIWFDFWGQGTTLTVS
VL: ETTVTQSPASLSMAIGEKVTIRCITTTDIDDDMNWFQQKPGEPPNLLISEGNILRPGVPSRFSSSGYGTDFLFTIENMLSEDVADYYCLQSDNLPFTFGSGTKLEIK
With B1, in experiment [1], the “density of inflammatory macrophages” value is listed as “dramatically attenuated” and the “density of mast cells” value is “dramatically attenuated”. Moreover, in the experiment with HUVECs, the “effect on S1P-promoted HUVEC migration and BV formation” value is reported as “neutralize these effects of S1P”. Further, in experiment [2] (Table 7), the “Specificity (ELISA)” value is on record as “High”. Also, in experiment [2] (competitor C1P, listed as anti-S1P mAb), the “recognition of ceramide-1-phosphate (C1P)” value is reported as “no antibody binding was observed”. In experiment [2] (competitor DH-S1P), the “cross-reactivity to dihydrosphingosine-1-phosphate (DH-S1P)” value is recorded as “did cross react”. Further, the “cross-reactivity to lysophosphatidic acid (LPA)” value in experiment [2] (competitor LPA, listed as anti-S1P mAb) is “exhibited no binding”. Further, the “cross-reactivity to sphingosylphosphorylcholine (SPC)” value in experiment [2] (listed as SPHINGOMAB) is reported as “to a lesser extent”. The “cross-reactivity to sphingosylphosphorylcholine (SPC)” value in experiment [2] (listed as anti-S1P mAb) is reported as “binding was somewhat reduced”. Moreover, in the experiment on perivascular fibrosis, the “perivascular fibrosis after MI” value was “almost complete abrogation of perivascular fibrosis”. For the same molecule, the “effect on S1P-stimulated fibroblast proliferation, migration, collagen expression, myofibroblast differentiation” value in experiment [3] is given as “neutralized”.

The values above are taken from patent US8614103B2, “Compositions and methods for treating sphingosine-1-phosphate (S1P) related ocular diseases and conditions” (Lpath, Inc., priority 2006, dated 2013).
